Measurements reported in IntAct's records for PubMed 35512704.

B1: Mothers against decapentaplegic homolog 4 (Homo sapiens), Q13485 (parent)
chain: MDNMSITNTPTSNDACLSIVHSLMCHRQGGESETFAKRAIESLVKKLKEKKDELDSLITAITTNGAHPSKCVTIQRTLDGRLQVAGRKGFPHVIYARLWRWPDLHKNELKHVKYCQYAFDLKCDSVCVNPYHYERVVSPGIDLSGLTLQSNAPSSMMVKDEYVHDFEGQPSLSTEGHSIQTIQHPPSNRASTETYSTPALLAPSESNATSTANFPNIPVASTSQPASILGGSHSEGLLQIASGPQPGQQQNGFTGQPATYHHNSTTTWTGSRTAPYTPNLPHHQNGHLQHHPPMPPHPGHYWPVHNELAFQPPISNHPAPEYWCSIAYFEMDVQVGETFKVPSSCPIVTVDGYVDPSGGDRFCLGQLSNVHRTEAIERARLHIGKGVQLECKGEGDVWVRCLSDHAVFVQSYYLDREAGRAPGDAVHKIYPSAYIKVFDLRQCHRQMQQQAATAQAAAAAQAAAVAGNIPGPGSVGGIAPAISLSAAAGIGVDDLRRLCILRMSFVKGWGPDYPRQSIKETPCWIEIHLHRALQLLDEVLHTMPIADPQPLD

Variants of: B1
Settings: with etv1_human ETV1, P50549

effect of a mutation on the interaction | Variant
with no effect | G386D

Variants of: B1
Settings: with ezh2_human EZH2, Q15910

effect of a mutation on the interaction | Variant
with no effect | G386D

Variants of: B1
Settings: with fadd_human FADD

effect of a mutation on the interaction | Variant
with no effect | G386D

Variants of: B1
Settings: with facd2_human FANCD2, Q9BXW9

effect of a mutation on the interaction | Variant
with no effect | G386D

Variants of: B1
Settings: with tnr6_human FAS

effect of a mutation on the interaction | Variant
with no effect | G386D

Variants of: B1
Settings: with fgf19_human FGF19, O95750

effect of a mutation on the interaction | Variant
with no effect | G386D

Variants of: B1
Settings: with fgfr3_human FGFR3, P22607

effect of a mutation on the interaction | Variant
with no effect | G386D

Variants of: B1
Settings: with fgfr4_human FGFR4, P22455

effect of a mutation on the interaction | Variant
with no effect | G386D

Variants of: B1
Settings: with foxo1_human FOXO1, Q12778

effect of a mutation on the interaction | Variant
with no effect | G386D

Variants of: B1
Settings: with foxo3_human FOXO3, O43524

effect of a mutation on the interaction | Variant
with no effect | G386D

Variants of: B1
Settings: with gbra6_human GABRA6, Q16445

effect of a mutation on the interaction | Variant
with no effect | G386D

Variants of: B1
Settings: with gata2_human GATA2, P23769
gata2_human GATA2, P23769, sequence (P23769 whole entry): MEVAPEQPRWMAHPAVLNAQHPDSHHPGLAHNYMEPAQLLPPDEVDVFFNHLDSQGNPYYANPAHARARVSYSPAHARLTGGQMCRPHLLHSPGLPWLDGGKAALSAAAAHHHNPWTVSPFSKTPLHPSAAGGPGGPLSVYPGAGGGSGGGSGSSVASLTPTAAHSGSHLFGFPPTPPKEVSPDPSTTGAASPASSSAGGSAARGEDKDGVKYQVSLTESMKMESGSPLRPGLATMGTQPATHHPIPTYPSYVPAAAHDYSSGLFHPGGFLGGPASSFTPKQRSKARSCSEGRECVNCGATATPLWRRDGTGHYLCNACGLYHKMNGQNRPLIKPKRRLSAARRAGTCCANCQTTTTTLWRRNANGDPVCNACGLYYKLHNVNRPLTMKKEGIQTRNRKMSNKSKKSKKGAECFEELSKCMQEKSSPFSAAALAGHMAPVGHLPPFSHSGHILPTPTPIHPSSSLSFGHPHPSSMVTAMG

effect of a mutation on the interaction | Variant
with no effect | G386D

Variants of: B1
Settings: with gata3_human GATA3, P23771

effect of a mutation on the interaction | Variant
with no effect | G386D

Variants of: B1
Settings: with gna11_human GNA11, P29992

effect of a mutation on the interaction | Variant
with no effect | G386D

Variants of: B1
Settings: with gna13_human GNA13, Q14344

effect of a mutation on the interaction | Variant
with no effect | G386D

Variants of: B1
Settings: with gnaq_human GNAQ

effect of a mutation on the interaction | Variant
with no effect | G386D

Variants of: B1
Settings: with grm1_human GRM1, Q13255

effect of a mutation on the interaction | Variant
with no effect | G386D

Variants of: B1
Settings: with grm3_human GRM3, Q14832

effect of a mutation on the interaction | Variant
with no effect | G386D

Variants of: B1
Settings: with gsk3a_human GSK3A

effect of a mutation on the interaction | Variant
with no effect | G386D

Variants of: B1
Settings: with gsk3b_human GSK3B

effect of a mutation on the interaction | Variant
with no effect | G386D

Variants of: B1
Settings: with hdac1_human HDAC1, Q13547

effect of a mutation on the interaction | Variant
with no effect | G386D

Variants of: B1
Settings: with hdac3_human HDAC3, O15379

effect of a mutation on the interaction | Variant
with no effect | G386D

Variants of: B1
Settings: with hgf_human HGF

effect of a mutation on the interaction | Variant
with no effect | G386D

Variants of: B1
Settings: with hif1a_human HIF1A

effect of a mutation on the interaction | Variant
with no effect | G386D

Variants of: B1
Settings: with h31_human H3C1, P68431

effect of a mutation on the interaction | Variant
with no effect | G386D

Variants of: B1
Settings: with hlab_human HLA-B

effect of a mutation on the interaction | Variant
with no effect | G386D

Variants of: B1
Settings: with hnf1a_human HNF1A

effect of a mutation on the interaction | Variant
with no effect | G386D

Variants of: B1
Settings: with rash_human HRAS

effect of a mutation on the interaction | Variant
with no effect | G386D

Variants of: B1
Settings: with hs90a_human HSP90AA1, P07900

effect of a mutation on the interaction | Variant
with no effect | G386D

Variants of: B1
Settings: with igf2_human IGF2, P01344

effect of a mutation on the interaction | Variant
with no effect | G386D

Variants of: B1
Settings: with il7ra_human IL7R

effect of a mutation on the interaction | Variant
with no effect | G386D

Variants of: B1
Settings: with int12_human INTS12, Q96CB8
int12_human INTS12, Q96CB8, sequence (Q96CB8 whole entry): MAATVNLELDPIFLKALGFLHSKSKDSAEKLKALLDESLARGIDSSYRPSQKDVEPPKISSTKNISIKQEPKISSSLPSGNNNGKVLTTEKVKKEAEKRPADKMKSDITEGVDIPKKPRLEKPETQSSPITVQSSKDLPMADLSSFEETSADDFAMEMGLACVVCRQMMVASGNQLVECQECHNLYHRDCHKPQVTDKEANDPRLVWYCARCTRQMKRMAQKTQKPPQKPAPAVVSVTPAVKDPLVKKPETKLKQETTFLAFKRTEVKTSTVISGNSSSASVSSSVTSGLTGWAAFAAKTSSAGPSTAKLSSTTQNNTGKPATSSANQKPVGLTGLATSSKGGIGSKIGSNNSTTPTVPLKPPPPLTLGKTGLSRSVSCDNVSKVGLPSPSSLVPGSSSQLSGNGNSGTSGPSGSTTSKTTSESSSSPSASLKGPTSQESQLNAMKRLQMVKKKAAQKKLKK

effect of a mutation on the interaction | Variant
with no effect | G386D

Variants of: B1
Settings: with irf6_human IRF6, O14896

effect of a mutation on the interaction | Variant
with no effect | G386D

Variants of: B1
Settings: with irs1_human IRS1, P35568

effect of a mutation on the interaction | Variant
with no effect | G386D

Variants of: B1
Settings: with ist1_human IST1, P53990

effect of a mutation on the interaction | Variant
with no effect | G386D

Variants of: B1
Settings: with jak1_human JAK1, P23458

effect of a mutation on the interaction | Variant
with no effect | G386D

Variants of: B1
Settings: with jak3_human JAK3, P52333

effect of a mutation on the interaction | Variant
with no effect | G386D

Variants of: B1
Settings: with kat2a_human KAT2A

effect of a mutation on the interaction | Variant
with no effect | G386D

Variants of: B1
Settings: with kdm5c_human KDM5C

effect of a mutation on the interaction | Variant
with no effect | G386D

Variants of: B1
Settings: with kdm6a_human KDM6A

effect of a mutation on the interaction | Variant
with no effect | G386D

Variants of: B1
Settings: with vgfr2_human KDR

effect of a mutation on the interaction | Variant
with no effect | G386D

Variants of: B1
Settings: with keap1_human KEAP1, Q14145

effect of a mutation on the interaction | Variant
with no effect | G386D

Variants of: B1
Settings: with klf4_human KLF4, O43474
klf4_human KLF4, O43474, sequence (O43474 whole entry): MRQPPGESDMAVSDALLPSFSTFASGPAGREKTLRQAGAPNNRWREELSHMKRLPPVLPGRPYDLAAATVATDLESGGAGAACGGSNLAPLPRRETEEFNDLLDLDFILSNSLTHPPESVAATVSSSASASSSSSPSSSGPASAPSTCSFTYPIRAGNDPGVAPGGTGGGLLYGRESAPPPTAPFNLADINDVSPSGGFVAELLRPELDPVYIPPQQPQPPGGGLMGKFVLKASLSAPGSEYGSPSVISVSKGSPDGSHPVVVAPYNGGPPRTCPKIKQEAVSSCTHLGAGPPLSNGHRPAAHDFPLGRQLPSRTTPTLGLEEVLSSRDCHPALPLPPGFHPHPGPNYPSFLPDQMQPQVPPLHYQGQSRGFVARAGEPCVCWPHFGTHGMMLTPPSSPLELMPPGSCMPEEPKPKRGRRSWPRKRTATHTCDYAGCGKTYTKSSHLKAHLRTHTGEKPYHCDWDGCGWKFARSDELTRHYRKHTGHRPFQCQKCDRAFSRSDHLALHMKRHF

effect of a mutation on the interaction | Variant
with no effect | G386D

Variants of: B1
Settings: with lims1_human LIMS1, P48059

effect of a mutation on the interaction | Variant
with no effect | G386D

Variants of: B1
Settings: with maga6_human MAGEA6, P43360

effect of a mutation on the interaction | Variant
with no effect | G386D

Variants of: B1
Settings: with mp2k7_human MAP2K7, O14733

effect of a mutation on the interaction | Variant
with no effect | G386D

Variants of: B1
Settings: with m3k1_human MAP3K1, Q13233

effect of a mutation on the interaction | Variant
with no effect | G386D

Variants of: B1
Settings: with m3k5_human MAP3K5, Q99683

effect of a mutation on the interaction | Variant
with no effect | G386D

Variants of: B1
Settings: with mk10_human MAPK10, P53779

effect of a mutation on the interaction | Variant
with no effect | G386D

Variants of: B1
Settings: with mk14_human MAPK14, Q16539

effect of a mutation on the interaction | Variant
with no effect | G386D

Variants of: B1
Settings: with mk03_human MAPK3, P27361

effect of a mutation on the interaction | Variant
with no effect | G386D

Variants of: B1
Settings: with mk04_human MAPK4, P31152

effect of a mutation on the interaction | Variant
with no effect | G386D

Variants of: B1
Settings: with mk06_human MAPK6, Q16659

effect of a mutation on the interaction | Variant
with no effect | G386D

Variants of: B1
Settings: with mk07_human MAPK7, Q13164
mk07_human MAPK7, Q13164, sequence (Q13164 whole entry, looked up): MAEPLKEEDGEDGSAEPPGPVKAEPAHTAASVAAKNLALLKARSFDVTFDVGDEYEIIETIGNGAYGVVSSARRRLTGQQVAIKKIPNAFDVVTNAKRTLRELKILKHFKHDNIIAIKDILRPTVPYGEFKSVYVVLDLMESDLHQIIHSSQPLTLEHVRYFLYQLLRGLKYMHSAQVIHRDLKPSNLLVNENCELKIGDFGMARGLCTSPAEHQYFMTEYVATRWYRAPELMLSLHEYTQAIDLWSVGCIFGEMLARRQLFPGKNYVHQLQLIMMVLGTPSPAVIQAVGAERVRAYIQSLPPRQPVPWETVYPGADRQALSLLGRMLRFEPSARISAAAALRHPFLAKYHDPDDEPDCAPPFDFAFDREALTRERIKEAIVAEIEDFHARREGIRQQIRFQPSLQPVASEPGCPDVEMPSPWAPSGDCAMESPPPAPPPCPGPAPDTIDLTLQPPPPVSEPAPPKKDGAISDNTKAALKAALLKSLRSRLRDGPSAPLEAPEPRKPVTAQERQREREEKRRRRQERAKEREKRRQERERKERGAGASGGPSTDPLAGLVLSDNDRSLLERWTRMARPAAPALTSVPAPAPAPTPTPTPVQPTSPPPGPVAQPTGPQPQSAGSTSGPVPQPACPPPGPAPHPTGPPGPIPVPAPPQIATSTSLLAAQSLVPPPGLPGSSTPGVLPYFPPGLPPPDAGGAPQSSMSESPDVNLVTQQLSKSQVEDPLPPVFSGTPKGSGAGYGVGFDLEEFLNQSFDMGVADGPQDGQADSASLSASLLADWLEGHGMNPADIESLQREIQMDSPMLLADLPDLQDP

effect of a mutation on the interaction | Variant
with no effect | G386D

Variants of: B1
Settings: with mcl1_human MCL1, Q07820

effect of a mutation on the interaction | Variant
with no effect | G386D

Variants of: B1
Settings: with mitf_human MITF

effect of a mutation on the interaction | Variant
with no effect | G386D

Variants of: B1
Settings: with mtor_human MTOR

effect of a mutation on the interaction | Variant
with no effect | G386D

Variants of: B1
Settings: with myc_human MYC

effect of a mutation on the interaction | Variant
with no effect | G386D

Variants of: B1
Settings: with nf1_human NF1, P21359
nf1_human NF1, P21359, sequence (P21359 whole entry): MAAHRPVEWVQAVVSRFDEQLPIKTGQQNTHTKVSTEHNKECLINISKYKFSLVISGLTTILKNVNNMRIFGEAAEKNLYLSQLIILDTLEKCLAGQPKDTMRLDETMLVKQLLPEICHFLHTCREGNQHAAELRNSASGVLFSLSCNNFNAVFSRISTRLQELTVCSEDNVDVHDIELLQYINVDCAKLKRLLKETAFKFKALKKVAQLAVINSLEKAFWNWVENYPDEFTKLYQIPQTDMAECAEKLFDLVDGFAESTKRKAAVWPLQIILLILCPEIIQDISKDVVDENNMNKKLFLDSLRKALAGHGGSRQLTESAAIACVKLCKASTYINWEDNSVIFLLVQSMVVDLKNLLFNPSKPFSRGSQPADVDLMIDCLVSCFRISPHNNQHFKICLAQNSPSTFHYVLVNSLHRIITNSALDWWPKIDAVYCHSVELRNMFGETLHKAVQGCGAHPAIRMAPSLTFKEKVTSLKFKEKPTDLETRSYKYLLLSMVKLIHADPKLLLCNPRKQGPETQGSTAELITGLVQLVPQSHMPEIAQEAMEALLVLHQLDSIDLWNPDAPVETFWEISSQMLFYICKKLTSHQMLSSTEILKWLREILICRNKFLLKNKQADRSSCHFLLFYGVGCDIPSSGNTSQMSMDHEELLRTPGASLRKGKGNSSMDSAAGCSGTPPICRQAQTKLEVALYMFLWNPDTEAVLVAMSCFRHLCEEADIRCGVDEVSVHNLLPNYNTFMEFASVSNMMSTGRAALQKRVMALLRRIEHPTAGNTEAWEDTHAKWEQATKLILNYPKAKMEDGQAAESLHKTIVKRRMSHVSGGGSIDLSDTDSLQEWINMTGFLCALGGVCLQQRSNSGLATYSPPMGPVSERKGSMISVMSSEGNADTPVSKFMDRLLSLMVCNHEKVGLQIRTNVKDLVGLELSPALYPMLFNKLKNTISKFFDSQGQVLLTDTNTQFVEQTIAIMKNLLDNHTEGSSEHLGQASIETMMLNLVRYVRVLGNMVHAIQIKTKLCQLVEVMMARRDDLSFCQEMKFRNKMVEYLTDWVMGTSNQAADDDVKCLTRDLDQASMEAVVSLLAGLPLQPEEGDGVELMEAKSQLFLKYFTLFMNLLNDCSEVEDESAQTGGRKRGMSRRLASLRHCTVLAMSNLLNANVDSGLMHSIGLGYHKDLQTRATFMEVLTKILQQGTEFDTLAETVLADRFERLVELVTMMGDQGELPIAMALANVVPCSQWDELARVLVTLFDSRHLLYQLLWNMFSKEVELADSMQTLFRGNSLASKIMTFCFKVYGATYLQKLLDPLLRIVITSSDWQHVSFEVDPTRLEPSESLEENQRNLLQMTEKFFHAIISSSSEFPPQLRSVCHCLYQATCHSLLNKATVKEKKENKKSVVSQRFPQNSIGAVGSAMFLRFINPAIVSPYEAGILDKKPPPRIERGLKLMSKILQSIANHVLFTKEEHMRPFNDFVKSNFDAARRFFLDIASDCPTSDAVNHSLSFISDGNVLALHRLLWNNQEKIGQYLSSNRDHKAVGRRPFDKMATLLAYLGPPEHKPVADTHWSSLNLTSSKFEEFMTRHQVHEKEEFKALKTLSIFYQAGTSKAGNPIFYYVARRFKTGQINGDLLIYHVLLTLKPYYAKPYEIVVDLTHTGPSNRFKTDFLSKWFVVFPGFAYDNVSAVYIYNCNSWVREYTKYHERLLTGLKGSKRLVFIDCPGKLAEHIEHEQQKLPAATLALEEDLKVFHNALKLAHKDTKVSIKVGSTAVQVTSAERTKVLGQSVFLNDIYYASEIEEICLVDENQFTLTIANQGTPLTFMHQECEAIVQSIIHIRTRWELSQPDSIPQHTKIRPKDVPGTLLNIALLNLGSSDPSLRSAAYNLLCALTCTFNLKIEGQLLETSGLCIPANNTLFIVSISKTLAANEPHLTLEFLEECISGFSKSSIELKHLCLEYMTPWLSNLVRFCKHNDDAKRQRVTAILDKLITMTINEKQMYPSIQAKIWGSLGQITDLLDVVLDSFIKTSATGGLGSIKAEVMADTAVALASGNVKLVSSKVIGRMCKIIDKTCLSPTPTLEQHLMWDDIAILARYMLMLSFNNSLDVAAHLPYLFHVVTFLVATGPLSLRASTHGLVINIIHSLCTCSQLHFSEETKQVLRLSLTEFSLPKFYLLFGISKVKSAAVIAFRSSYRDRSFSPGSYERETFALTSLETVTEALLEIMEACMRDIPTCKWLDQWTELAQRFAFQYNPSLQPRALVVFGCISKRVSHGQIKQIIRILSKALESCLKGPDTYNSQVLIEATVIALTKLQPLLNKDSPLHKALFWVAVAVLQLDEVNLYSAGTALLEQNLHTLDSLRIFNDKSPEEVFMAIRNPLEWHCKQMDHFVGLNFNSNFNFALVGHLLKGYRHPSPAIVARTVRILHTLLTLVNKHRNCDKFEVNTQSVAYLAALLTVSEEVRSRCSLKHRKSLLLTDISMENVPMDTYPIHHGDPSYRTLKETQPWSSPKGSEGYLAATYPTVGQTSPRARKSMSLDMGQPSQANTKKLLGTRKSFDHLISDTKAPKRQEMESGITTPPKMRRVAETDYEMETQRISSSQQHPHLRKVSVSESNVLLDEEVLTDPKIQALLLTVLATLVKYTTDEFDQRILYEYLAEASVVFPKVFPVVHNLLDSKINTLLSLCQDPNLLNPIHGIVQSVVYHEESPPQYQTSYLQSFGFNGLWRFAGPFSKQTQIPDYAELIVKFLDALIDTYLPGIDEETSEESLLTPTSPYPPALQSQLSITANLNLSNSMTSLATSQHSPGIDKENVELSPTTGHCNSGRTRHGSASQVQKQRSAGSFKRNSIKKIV

effect of a mutation on the interaction | Variant
with no effect | G386D

Variants of: B1
Settings: with merl_human NF2, P35240

effect of a mutation on the interaction | Variant
with no effect | G386D

Variants of: B1
Settings: with nfic_human NFIC

effect of a mutation on the interaction | Variant
with no effect | G386D

Variants of: B1
Settings: with ikba_human NFKBIA

effect of a mutation on the interaction | Variant
with no effect | G386D

Variants of: B1
Settings: with notc2_human NOTCH2, Q04721

effect of a mutation on the interaction | Variant
with no effect | G386D

Variants of: B1
Settings: with nox1_human NOX1, Q9Y5S8

effect of a mutation on the interaction | Variant
with no effect | G386D

Variants of: B1
Settings: with ntrk2_human NTRK2, Q16620

effect of a mutation on the interaction | Variant
with no effect | G386D

Variants of: B1
Settings: with pak3_human PAK3, O75914

effect of a mutation on the interaction | Variant
with no effect | G386D

Variants of: B1
Settings: with prkn_human PRKN

effect of a mutation on the interaction | Variant
with no effect | G386D

Variants of: B1
Settings: with pax5_human PAX5, Q02548

effect of a mutation on the interaction | Variant
with no effect | G386D

Variants of: B1
Settings: with pax9_human PAX9, P55771

effect of a mutation on the interaction | Variant
with no effect | G386D

Variants of: B1
Settings: with pb1_human PBRM1, Q86U86

effect of a mutation on the interaction | Variant
with no effect | G386D

Variants of: B1
Settings: with pcbp1_human PCBP1, Q15365

effect of a mutation on the interaction | Variant
with no effect | G386D

Variants of: B1
Settings: with pgfra_human PDGFRA

effect of a mutation on the interaction | Variant
with no effect | G386D

Variants of: B1
Settings: with pgfrb_human PDGFRB

effect of a mutation on the interaction | Variant
with no effect | G386D

Variants of: B1
Settings: with pdk1_human PDK1, Q15118

effect of a mutation on the interaction | Variant
with no effect | G386D

Variants of: B1
Settings: with PIK3C2B

effect of a mutation on the interaction | Variant
with no effect | G386D
